In test [1] the target is DREP1 CIDE domain (DFF-related protein 1), wild type (Drosophila melanogaster). Description: SEC; purified proteins alone or mixed, Superdex 200 HR 10/30 in 20 mM Tris-HCl pH 8.0, 150 mM NaCl; peak fractions on SDS-PAGE. In general terms: Size exclusion chromatography separates by hydrodynamic size, large species first.
Test [2] concerns the target DREP3 CIDE domain (DFF-related protein 3), wild type (Drosophila melanogaster). Described as above.

On to “DREP1 CIDE domain (DFF-related protein 1), wild type (domain or fragment)”, for which the stoichiometry N (commonly the number of molecules, sites or subunits per partner or assembly) in test [1] amounted to 2.

Regarding “DREP3 CIDE domain (DFF-related protein 3), wild type (domain or fragment)”, the stoichiometry N in test [2] turned out to be 2.

(Values after article PMC5730196.)
